Reference: paper PMC3799435, “Dissecting the interactions of SERRATE with RNA and DICER-LIKE 1 in Arabidopsis microRNA precursor processing” (Nucleic Acids Research, 2013)

Key:
Conditions in all cases: both partners purified
[1] = biological target: T1, DICER-LIKE 1 (DCL1), untagged recombinant (Arabidopsis thaliana, UniProt Q9SP32 1-1909); assay: SPR; Biacore T100; about 1750 RU of DCL1 immobilised via amine groups on a CM5 chip, no RNA; SE and its mutants injected for 70 s at 20 nM; 20 mM Tris-HCl (pH 7.0), 50 mM NaCl, 2 mM β-ME, 0.005% surfactant P20
T1 construct: DICER-LIKE 1 (DCL1) of Arabidopsis thaliana, 214 kDa; cDNA amplified with primers from the start codon to the stop codon; one silent mutation introduced; no extra residues at the N-terminus after SUMOstar protease; also called native DCL1; source: Sf9 insect cells (baculovirus), purified (Ni-NTA, StrepTrap, SUMOstar protease, Ni-NTA flow-through, Superdex 200); not shown: His6, N-terminal, …

[2] = biological target: T1, DICER-LIKE 1 (DCL1), untagged …; assay: SPR; Biacore T100; 1750 RU of DCL1 immobilised via amine groups on a CM5 chip; SE injected for 70 s at 20 nM; 20 mM Tris-HCl (pH 7.0), 2 mM β-ME, 0.005% surfactant P20, 50 mM or 150 mM NaCl
[3] = biological target: T1, DICER-LIKE 1 (DCL1), untagged …; assay: SPR; Biacore T100; about 1200 RU of DCL1 (injected at 16 nM) bound beforehand to 60 RU of biotin-labelled forked RNA on an SA chip; SE and its mutants then injected for 70 s at 20 nM; 20 mM Tris-HCl (pH 7.0), 50 mM NaCl, 2 mM β-ME, 0.005% surfactant P20; RU of mutants normalised to the RU of DCL1 bound

T1 sequence (Q9SP32 whole entry): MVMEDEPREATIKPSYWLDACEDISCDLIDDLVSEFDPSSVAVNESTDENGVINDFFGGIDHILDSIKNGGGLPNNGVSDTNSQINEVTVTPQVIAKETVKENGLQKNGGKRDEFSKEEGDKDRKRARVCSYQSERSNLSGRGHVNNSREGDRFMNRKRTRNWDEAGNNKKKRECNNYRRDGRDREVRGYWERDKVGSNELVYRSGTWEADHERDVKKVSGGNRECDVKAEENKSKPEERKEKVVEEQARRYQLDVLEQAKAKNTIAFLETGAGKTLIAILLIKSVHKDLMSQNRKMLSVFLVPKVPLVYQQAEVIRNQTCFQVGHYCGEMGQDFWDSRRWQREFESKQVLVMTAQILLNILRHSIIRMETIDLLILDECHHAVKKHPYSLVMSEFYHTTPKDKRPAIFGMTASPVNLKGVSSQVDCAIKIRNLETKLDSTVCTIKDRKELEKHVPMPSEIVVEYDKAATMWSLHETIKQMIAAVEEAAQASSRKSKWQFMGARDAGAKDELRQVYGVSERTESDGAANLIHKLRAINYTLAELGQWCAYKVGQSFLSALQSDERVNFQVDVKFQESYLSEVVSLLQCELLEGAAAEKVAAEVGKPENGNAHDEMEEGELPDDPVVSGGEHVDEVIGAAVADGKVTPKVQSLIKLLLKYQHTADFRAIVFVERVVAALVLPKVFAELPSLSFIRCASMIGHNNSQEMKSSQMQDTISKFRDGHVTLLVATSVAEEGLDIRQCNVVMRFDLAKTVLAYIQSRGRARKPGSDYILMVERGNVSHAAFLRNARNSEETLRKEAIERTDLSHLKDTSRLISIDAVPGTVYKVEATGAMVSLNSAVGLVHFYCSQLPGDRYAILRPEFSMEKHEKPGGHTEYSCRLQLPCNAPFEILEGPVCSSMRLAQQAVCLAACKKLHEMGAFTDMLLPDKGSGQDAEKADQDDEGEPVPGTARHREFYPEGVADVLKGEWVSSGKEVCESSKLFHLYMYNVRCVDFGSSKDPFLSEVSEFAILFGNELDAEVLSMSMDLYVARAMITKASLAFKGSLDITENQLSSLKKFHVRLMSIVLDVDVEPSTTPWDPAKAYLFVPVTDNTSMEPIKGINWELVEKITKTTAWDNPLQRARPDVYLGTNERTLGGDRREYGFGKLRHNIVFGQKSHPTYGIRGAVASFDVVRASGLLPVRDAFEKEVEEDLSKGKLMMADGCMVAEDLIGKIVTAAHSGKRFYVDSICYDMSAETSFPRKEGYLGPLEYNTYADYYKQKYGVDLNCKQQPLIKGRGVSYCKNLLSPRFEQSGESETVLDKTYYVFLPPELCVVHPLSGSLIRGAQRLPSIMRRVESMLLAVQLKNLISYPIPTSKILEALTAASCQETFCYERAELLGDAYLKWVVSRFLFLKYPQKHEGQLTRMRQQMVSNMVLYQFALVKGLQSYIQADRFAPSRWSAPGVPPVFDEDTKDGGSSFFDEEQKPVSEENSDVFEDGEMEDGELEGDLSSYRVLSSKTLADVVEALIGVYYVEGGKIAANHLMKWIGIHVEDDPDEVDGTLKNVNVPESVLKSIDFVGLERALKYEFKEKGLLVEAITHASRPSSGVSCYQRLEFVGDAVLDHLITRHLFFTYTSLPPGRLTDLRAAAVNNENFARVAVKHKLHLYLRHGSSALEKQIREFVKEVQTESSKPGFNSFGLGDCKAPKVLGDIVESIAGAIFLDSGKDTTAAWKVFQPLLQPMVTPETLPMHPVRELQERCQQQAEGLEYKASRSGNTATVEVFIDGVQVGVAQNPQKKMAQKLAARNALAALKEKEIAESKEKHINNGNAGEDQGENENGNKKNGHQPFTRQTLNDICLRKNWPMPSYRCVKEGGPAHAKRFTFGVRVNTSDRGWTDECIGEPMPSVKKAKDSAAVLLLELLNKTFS

B1: SE1–701, C-terminally truncated hexahistidine-tagged SERRATE (domain or fragment, Arabidopsis thaliana, UniProt Q9ZVD0 1-701, looked up)
chain: MADVNLPPSDSVDNRLPEKSTSSSPPPPPPSSSLPQQEQEQDQQQLPLRRERDSRERRDERDIERPPPNRRERDRSPLPPPRRDYKRRPSLSPPPPYRDRRHSPPQRRSPPQKRYRRDDNGYDGRRGSPRGGYGPPDRRFGYDHGGGYDREMGGRPGYGDERPHGRFMGRYQDWEGGRGGYGDASNSGNPQRDGLMSYKQFIQELEDDILPSEAERRYQEYKSEYITTQKRAFFNTHKEEDWLKNKYHPTNLLSVIERRNDLAQKVAKDFLLDLQSGTLDLGPAVTALNKSGRTSEPNSEDEAAGVGKRKRHGMGGAKENELLSAAPKAPSFTSDPKRILTDVEQTQALVRKLDSEKKIEENVLQGSETEKSGREKLHSGSTGPVVIIRGLTSVKGLEGVELLDTLVTYLWRVHGLDYYGKVETNEAKGLRHVRAEGKVSDAKGDENESKFDSHWQERLKGQDPLEVMAAKEKIDAAATEALDPHVRKIRDEKYGWKYGCGAKGCTKLFHAAEFVYKHLKLKHTELVTELTTKVREELYFQNYMNDPNAPGGQPATQQSGPRDRPIRRKPSMENRLRDDRGGRRERDGRANGNDRNDRSEDQQRGDNDGGNPGEVGYDAFGGQGGVHVPPFLSDINPPPMLMPVPGAGPLGPFVPAPPEVAMQMFRDPSGPNPPFEGSGRGGPAPFLLSPAFRQDPRRLRS
notes: No cleavage step of the tag is described in the purification; also called C-terminal domain deletion; source: Sf9 insect cells (baculovirus), purified (TALON, Superdex 200)
binding result [1]: binds

B2: SERRATE (SE), untagged recombinant (natural protein, Arabidopsis thaliana, UniProt Q9ZVD0 1-720, looked up)
chain: MADVNLPPSDSVDNRLPEKSTSSSPPPPPPSSSLPQQEQEQDQQQLPLRRERDSRERRDERDIERPPPNRRERDRSPLPPPRRDYKRRPSLSPPPPYRDRRHSPPQRRSPPQKRYRRDDNGYDGRRGSPRGGYGPPDRRFGYDHGGGYDREMGGRPGYGDERPHGRFMGRYQDWEGGRGGYGDASNSGNPQRDGLMSYKQFIQELEDDILPSEAERRYQEYKSEYITTQKRAFFNTHKEEDWLKNKYHPTNLLSVIERRNDLAQKVAKDFLLDLQSGTLDLGPAVTALNKSGRTSEPNSEDEAAGVGKRKRHGMGGAKENELLSAAPKAPSFTSDPKRILTDVEQTQALVRKLDSEKKIEENVLQGSETEKSGREKLHSGSTGPVVIIRGLTSVKGLEGVELLDTLVTYLWRVHGLDYYGKVETNEAKGLRHVRAEGKVSDAKGDENESKFDSHWQERLKGQDPLEVMAAKEKIDAAATEALDPHVRKIRDEKYGWKYGCGAKGCTKLFHAAEFVYKHLKLKHTELVTELTTKVREELYFQNYMNDPNAPGGQPATQQSGPRDRPIRRKPSMENRLRDDRGGRRERDGRANGNDRNDRSEDQQRGDNDGGNPGEVGYDAFGGQGGVHVPPFLSDINPPPMLMPVPGAGPLGPFVPAPPEVAMQMFRDPSGPNPPFEGSGRGGPAPFLLSPAFRQDPRRLRSYQDLDAPEEEVTVIDYRSL
notes: SERRATE (SE) of Arabidopsis thaliana, 81 kDa, 720 amino acids; cDNA amplified with primers from the start codon to the stop codon; also called native SE; untagged SE; source: Sf9 insect cells (baculovirus), purified (Ni-NTA, StrepTrap, SUMOstar protease, Ni-NTA flow-through, Superdex 200); not shown: His6, N-terminal, cleaved; Strep-tag II, N-terminal, cleaved; SUMOstar, N-terminal, cleaved
fold reduction in RUmax from 50 to 150 mM NaCl [2]: 5 fold

B3: N-terminally hexahistidine-tagged wild-type SERRATE (SE) (natural protein, Arabidopsis thaliana, UniProt Q9ZVD0 1-720, looked up)
chain: MADVNLPPSDSVDNRLPEKSTSSSPPPPPPSSSLPQQEQEQDQQQLPLRRERDSRERRDERDIERPPPNRRERDRSPLPPPRRDYKRRPSLSPPPPYRDRRHSPPQRRSPPQKRYRRDDNGYDGRRGSPRGGYGPPDRRFGYDHGGGYDREMGGRPGYGDERPHGRFMGRYQDWEGGRGGYGDASNSGNPQRDGLMSYKQFIQELEDDILPSEAERRYQEYKSEYITTQKRAFFNTHKEEDWLKNKYHPTNLLSVIERRNDLAQKVAKDFLLDLQSGTLDLGPAVTALNKSGRTSEPNSEDEAAGVGKRKRHGMGGAKENELLSAAPKAPSFTSDPKRILTDVEQTQALVRKLDSEKKIEENVLQGSETEKSGREKLHSGSTGPVVIIRGLTSVKGLEGVELLDTLVTYLWRVHGLDYYGKVETNEAKGLRHVRAEGKVSDAKGDENESKFDSHWQERLKGQDPLEVMAAKEKIDAAATEALDPHVRKIRDEKYGWKYGCGAKGCTKLFHAAEFVYKHLKLKHTELVTELTTKVREELYFQNYMNDPNAPGGQPATQQSGPRDRPIRRKPSMENRLRDDRGGRRERDGRANGNDRNDRSEDQQRGDNDGGNPGEVGYDAFGGQGGVHVPPFLSDINPPPMLMPVPGAGPLGPFVPAPPEVAMQMFRDPSGPNPPFEGSGRGGPAPFLLSPAFRQDPRRLRSYQDLDAPEEEVTVIDYRSL
notes: SERRATE (SE) of Arabidopsis thaliana, 720 amino acids; tagged protein 86 kDa; primers from the start codon to the stop codon; myc tag and Strep tag II were inserted in the NotI site of the modified pENTR-D/TOPO vector, then moved to pDEST10; also called His-tagged SE; hexahistidine-tagged SE; source: Sf9 insect cells (baculovirus), purified (TALON, Superdex 200); not shown: His6, N-terminal, kept
stoichiometry N [1]: 0.7 SE:DCL1 molar ratio | stoichiometry N [3]: 2.4 SE:DCL1 molar ratio
